Test results as given in doi:10.1101/2021.02.07.430159.

Biological target: GST-MLLE protein (MLLE domain of PABPC1)
Assay: SPR

B1: super-PAM2 peptide (peptide)
peptide: SNLNPNAPEFHPGVPWKGLQ
B1 gave a Kd of 20 nM.
